Test results reported in patent US20250320304A1 (Janssen / Centocor, published 2025).

T1: biotinylated-BCMA protein (UniProt Q02223 1-54, limits assumed, biotinylated (site not stated))
T1 construct: also called recombinant BCMA antigen; recombinant biotinylated BCMA
T1 sequence (looked up): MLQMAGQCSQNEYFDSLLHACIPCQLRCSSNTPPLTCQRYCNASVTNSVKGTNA

B1: TD01B46 (bispecific antibody, human IgG1, kappa, L234A L235A)
light: DIVMTQSQKFMSTTVGDRVSITCKASQNVGTAVAWYQQKPGQSPKLLIYSASNRYTGVPDRFTGTGSGTDFTLTIINVQSEDLADYFCQQYGSSPWTFGGGTKLEIKRTVAAPSVFIFPPSDEQLKSGTASVVCLLNNFYPREAKVQWKVDNALQSGNSQESVTEQDSKDSTYSLSSTLTLSKADYEKHKVYACEVTHQGLSSPVTKSFNRGEC
heavy: QVQLQQSGAELVKPGASVKLSCKASGYTFTNNVMHWVRQKPGQGLEWIGYILPYNDGTKYNEKFKGKATLTSDKSSSTAYMELSSLTSEDSAVYYCARYDYDGYFDYWGQGTTLTVSSASTKGPSVFPLAPSSKSTSGGTAALGCLVKDYFPEPVTVSWNSGALTSGVHTFPAVLQSSGLYSLSSVVTVPSSSLGTQTYICNVNHKPSNTKVDKKVEPKSCDKTHTCPPCPAPEAAGGPSVFLFPPKPKDTLMISRTPEVTCVVVSVSHEDPEVKFNWYVDGVEVHNAKTKPREEQYNSTYRVVSVLTVLHQDWLNGKEYKCKVSNKALPAPIEKTISKAKGQPREPQVYTLPPSREEMTKNQVSLSCAVKGFYPSDIAVEWESNGQPENNYKTTPPVLDSDGSFFLVSKLTVDKSRWQQGNVFSCSVMHEALHNRFTQKSLSLSPGK
chain: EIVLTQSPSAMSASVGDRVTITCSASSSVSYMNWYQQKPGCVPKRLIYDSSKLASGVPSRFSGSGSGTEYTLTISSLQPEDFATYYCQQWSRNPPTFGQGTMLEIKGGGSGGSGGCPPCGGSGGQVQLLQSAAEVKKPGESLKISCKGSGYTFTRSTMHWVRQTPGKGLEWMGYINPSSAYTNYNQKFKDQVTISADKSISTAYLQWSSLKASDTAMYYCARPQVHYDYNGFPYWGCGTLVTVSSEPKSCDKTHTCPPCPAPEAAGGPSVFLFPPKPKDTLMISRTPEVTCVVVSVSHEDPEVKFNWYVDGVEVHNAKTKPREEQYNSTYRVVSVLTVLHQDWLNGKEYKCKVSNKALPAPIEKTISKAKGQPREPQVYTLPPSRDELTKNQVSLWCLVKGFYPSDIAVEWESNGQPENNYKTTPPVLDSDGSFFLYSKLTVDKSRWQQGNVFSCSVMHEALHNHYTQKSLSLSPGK
notes: Stapled bispecific from the large-scale batch; also called BCMB749 × Cris7b spFv
B2: TD01B49 (bispecific antibody, human IgG1, kappa, L234A L235A)
light: B1 light
heavy: B1 heavy
chain: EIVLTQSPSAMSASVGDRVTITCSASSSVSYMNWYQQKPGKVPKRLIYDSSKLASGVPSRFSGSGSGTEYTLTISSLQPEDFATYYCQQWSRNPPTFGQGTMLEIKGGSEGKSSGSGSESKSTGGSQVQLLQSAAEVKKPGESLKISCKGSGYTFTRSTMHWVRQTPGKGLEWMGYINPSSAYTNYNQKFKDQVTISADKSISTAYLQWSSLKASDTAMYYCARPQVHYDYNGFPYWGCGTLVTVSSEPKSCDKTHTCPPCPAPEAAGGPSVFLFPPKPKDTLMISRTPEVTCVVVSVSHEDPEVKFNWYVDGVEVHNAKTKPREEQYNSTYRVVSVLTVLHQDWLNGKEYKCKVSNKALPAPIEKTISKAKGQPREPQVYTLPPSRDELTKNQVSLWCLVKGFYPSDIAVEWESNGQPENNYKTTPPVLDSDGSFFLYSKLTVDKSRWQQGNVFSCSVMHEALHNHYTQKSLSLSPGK
notes: also called BCMB749 × Cris7b scFv Bird
B3: TD01B48 (bispecific antibody)
light: B1 light
heavy: B1 heavy
scFv-Fc: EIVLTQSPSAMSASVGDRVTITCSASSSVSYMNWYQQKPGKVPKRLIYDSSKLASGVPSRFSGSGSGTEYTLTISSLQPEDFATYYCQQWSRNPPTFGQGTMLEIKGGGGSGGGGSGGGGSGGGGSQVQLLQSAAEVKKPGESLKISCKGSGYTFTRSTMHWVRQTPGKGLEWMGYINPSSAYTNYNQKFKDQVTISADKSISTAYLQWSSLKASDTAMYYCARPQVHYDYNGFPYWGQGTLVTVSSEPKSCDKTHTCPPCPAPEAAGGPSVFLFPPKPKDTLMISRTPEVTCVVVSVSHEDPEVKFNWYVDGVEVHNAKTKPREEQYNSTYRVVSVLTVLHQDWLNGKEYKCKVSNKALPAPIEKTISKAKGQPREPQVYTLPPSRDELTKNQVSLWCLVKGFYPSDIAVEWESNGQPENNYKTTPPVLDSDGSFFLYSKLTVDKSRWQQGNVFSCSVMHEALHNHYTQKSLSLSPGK
notes: also called BCMB749 × Cris7b scFv G4S; Cris7 scFv B48 G4S

Columns and labels:
[1] = molecular target: T2, Human CD3E-CD3D Heterodimer Protein (Acro Biosystems) (human, UniProt P07766 23-126; P04234 22-105); experiment: BLI (Octet), bispecific on anti-human Fc sensor, CD3 in solution, 2:1 heterogeneous ligand model, KD2
T2 construct: also called recombinant CD3 antigen (human CD3 epsilon and CD3 delta heterodimer protein, Acro Biosystems); Recombinant CD3E/D heterodimer protein
Procedure: (§1) To evaluate CD3 binding, anti-human IgG Fc (AHC) capture biosensors (Sartorius) were loaded with 3 ug/mL bispecific sample of interest in PBS. After loading sensor tips were washed in 1×DPBS+0.02% Tween 20+1 mg/mL Bovine Serum Albumin (BSA) for blocking. […] Association was monitored for 1800 s and dissociation for 900 s, respectively. All measurements were performed at 30° C. with agitation at 1,200 rpm. Sensorgrams were referenced for buffer effects and then analyzed using the FORTEBIO Data Analysis HT Software (V. 12.0.1.55). Kinetic responses were baseline subtracted, aligned and globally fit using a 1:1 fitting model or 2:1 heterogeneous ligand binding model to obtain values for association (Kon), dissociation (Koff) rate constants and the equilibrium dissociation constants (KD).
(§2) Recombinant CD3E/D heterodimer protein was used to assess binding of the scFv/spFv anti-CD3 arms.

[2] = molecular target: T1, biotinylated-BCMA protein; experiment: ELISA, chemiluminescence: biotinylated recombinant BCMA on streptavidin plates, detection with goat anti-human IgG F(ab')2 HRP
Procedure: Bispecific antibodies were analyzed for binding to either recombinant biotinylated BCMA or recombinant biotinylated CD3 antigen (human CD3 epsilon and CD3 delta heterodimer protein, Acro Biosystems). ELISAs were carried out according to standard protocols and plates were washed three time with TBS containing 0.05% Tween 20 (TBS-T) between each incubation step. Ninety-six-well MAXISORP plates (Nunc) were coated with 1 ug/mL of Streptavidin, diluted in 1×dPBS for 18 hours at 4° C. All plates were coated with 20 nM of antigen of interest for 1 hour at room temperature and then blocked with 3% BSA in PBS-T (1×dPBs with 0.05% tween 20) for 1 hour at room temperature. After blocking, plates were incubated with serial dilution of purified bispecific samples in PBS-T for 1 h at RT, and were then incubated with goat anti-human IgG F(ab′2)2 HRP (Jackson ImmunoResearch) for 1 hour at room temperature. After washing, BM Chemilluminesence ELISA Substrate (POD) was added (Millipore) and plates were immediately read on an ENVISION plate reader (Perkin Elmer) using ultrasensitive illuminesence. […] PRISM, where curves were generated and analyzed with a nonlinear regression curve fit.

[3] = molecular target: T2, Human CD3E-CD3D Heterodimer Protein …; experiment: BLI (Octet), bispecific on anti-human Fc sensor, CD3 in solution, 2:1 heterogeneous ligand model, ka
Procedure: as §1, §2

[4] = molecular target: T1, biotinylated-BCMA protein; experiment: BLI (Octet), biotinylated BCMA on streptavidin sensor, bispecific in solution, 1:1 model
Procedure: Binding of the Cris7b scFv and stapled spFv bispecific molecules to recombinant CD3 antigen (human CD3 epsilon and CD3 delta heterodimer protein, Acro Biosystems) and recombinant BCMA antigen were measured by biolayer interferometry (BLI) using an OCTET HTX instrument (Sartorius, formerly ForteBio). To evaluate BCMA binding, Streptavidin (SA) capture sensors (Sartorius) were loaded with biotinylated-BCMA protein to ˜1 nm signal in PBS. […] Association and dissociation times were 900 s, respectively. […] All measurements were performed at 30° C. with agitation at 1,200 rpm. Sensorgrams were referenced for buffer effects and then analyzed using the ForteBio Data Analysis HT Software (V. 12.0.1.55). Kinetic responses were baseline subtracted, aligned and globally fit using a 1:1 fitting model or 2:1 heterogeneous ligand binding model to obtain values for association (Kon), dissociation (Koff) rate constants and the equilibrium dissociation constants (KD).

[5] = molecular target: T2, Human CD3E-CD3D Heterodimer Protein …; experiment: BLI (Octet), bispecific on anti-human Fc sensor, CD3 in solution, 2:1 heterogeneous ligand model, kdis
Procedure: as §1, §2

[6] = molecular target: T2, Human CD3E-CD3D Heterodimer Protein …; experiment: BLI (Octet), bispecific on anti-human Fc sensor, CD3 in solution, 2:1 heterogeneous ligand model, KD1
Procedure: as §1, §2

[7] = molecular target: T2, Human CD3E-CD3D Heterodimer Protein …; experiment: BLI (Octet), bispecific on anti-human Fc sensor, CD3 in solution, 2:1 heterogeneous ligand model, kdis2
Procedure: as §1, §2

[8] = molecular target: T2, Human CD3E-CD3D Heterodimer Protein …; experiment: BLI (Octet), bispecific on anti-human Fc sensor, CD3 in solution, 2:1 heterogeneous ligand model, ka2
Procedure: as §1, §2

T2 sequence (P07766 23-126 limits assumed, chain 1 of 2): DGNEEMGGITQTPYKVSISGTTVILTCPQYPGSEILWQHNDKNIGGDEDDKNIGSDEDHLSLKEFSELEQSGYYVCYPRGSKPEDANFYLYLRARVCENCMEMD
T2 sequence (P04234 22-105 limits assumed, chain 2 of 2): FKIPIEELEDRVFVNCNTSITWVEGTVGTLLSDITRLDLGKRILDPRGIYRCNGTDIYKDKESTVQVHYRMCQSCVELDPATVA

Row | Binder | Kd [1] | EC50 (read off the curve) [2] | kon [3] | Kd [4] | koff [4] | kon [4] | koff [5] | Kd [6] | koff [7] | kon [8]
1 | B1 | 2.99 nM | ~2 nM | 158000 M⁻¹ s⁻¹ | 5.43 nM | 0.00142 s⁻¹ | 261000 M⁻¹ s⁻¹ | 3.49e-06 s⁻¹ | 0.0222 nM | 4.65e-05 s⁻¹ | 15600 M⁻¹ s⁻¹
2 | B2 | 3.42 nM | ~2 nM | 160000 M⁻¹ s⁻¹ | 4.02 nM | 0.00145 s⁻¹ | 362000 M⁻¹ s⁻¹ | 2.04e-05 s⁻¹ | 0.127 nM | 5.61e-05 s⁻¹ | 16400 M⁻¹ s⁻¹
3 | B3 | 4.62 nM | ~2 nM | 147000 M⁻¹ s⁻¹ |  |  |  | 3.49e-05 s⁻¹ | 0.238 nM | 7.45e-05 s⁻¹ | 16100 M⁻¹ s⁻¹
